Measurements: the supplement of paper PMC10567573

B1: DFFB (parent)
chain: TLVEAIKEQDGREVDWEYFYGLLF

Variants of: B1
Test: protein stability index of a GFP-peptide fusion (GPS, HEK-293T) (PSI 1-6); higher = more stable
Conditions: c terminus: a fixed tail appended
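Note: lentivirally expressed fusions sorted by FACS into six bins by GFP to DsRed ratio, PSI derived from sequencing read proportions per bin multiplied by bin number.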

Protein stability index: each site, then its substitutions
E8: K 1.83; F 1.1; S 1.72; A 1.88; G 2.37; D 2.08; L 2.82; V 1.66; Y 2.48; R 2.67; H 2.47; Q 1.43; I 1.3; M 1.62; P 2.38; N 2.53
V14: T 2.36; Q 1.7; H 1.91; C 1.5; L 2.28; W 2.12; E 2.37; A 2.25; G 2.12; R 1.65; Y 2.18; N 2.36; D 1.28; I 2.05; K 1.23; F 1.51; M 1.98; P 1.76; S 2.24
R12: C 1.91; A 1.32; Y 2.59; E 2.44; K 2.41; F 1.48; I 1.56; G 1.74; T 1.92; Q 2.41; M 2.18; H 2.2; P 2.16; V 2.07; N 2.42; S 1.84; W 1.72
D10: M 1.35; V 1.73; N 1.86; T 1.59; Q 1.71; P 2.32; C 1.99; A 2.01; K 2.12; H 1.99; R 1.41; G 2.66; F 1.91; Y 1.92; S 2.37; L 1.91
D15: C 1.9; L 1.59; N 1.9; G 1.9; F 1.93; E 3.52; P 2.2; Q 1.78; H 1.51; I 2.15; R 1.75; A 1.44; S 2.12; M 1.69
Q9: H 2.33; K 1.55; R 2.27; M 1.74; L 3.05; Y 1.08; I 1.87; E 2.26; G 1.26; P 3; W 2.59; F 2.73; A 1.37; V 1.24; D 1.97; S 1.66; T 2; N 1.57
I6: C 2.24; F 2.38; Q 2.32; S 1.89; M 1.94; W 1.38; Y 1.81; R 2.16; P 2.17; N 2.2; K 2.2; H 2.58; A 2.59; V 2.25; T 2.01; E 2.58
G11: P 2.44; M 2.13; C 2.72; K 1.61; E 2.13; A 1.84; H 2.04; V 2.92; Y 1.88; F 1.02; T 2.28; S 1.7; Q 2.04; N 2.13
A5: Y 2.73
E13: L 1.57; D 2.1; K 3.03; T 1.98; H 1.84; R 1.81; S 1.76; Y 3.29; G 3.05; M 2.02; C 1.22; I 2.36; P 1.67; F 1.85; V 2.07; A 1.74; N 1.79; W 2.27
K7: F 2.99; A 2.31; I 2.28; S 1.31; N 1.51; P 2.3; Y 3.52; M 1.72; C 1.98; R 1.03; E 2.34; Q 2.16; G 1.79; V 1.64; W 2.15; H 1.9; D 1.58; T 2.19
